Test results published in US20230227790.

Target: component B (compB) protein (I53-50B)
Test: SEC-HPLC after sub-surface pipette addition and orbital agitation overnight

B1: component A (compA) protein (I53-50A) fused to RSV antigen (protein)
chain: MEELFKKHKIVAVLRANSVEEAIEKAVAVFAGGVHLIEITFTVPDADTVIKALSVLKEKGAIIGAGTVTSVEQCRKAVESGAEFIVSPHLDEEISQFCKEKGVFYMPGVMTPTELVKAMKLGHTILKLFPGEVVGPQFVKAMKGPFPNVKFVPTGGVNLDNVCEWFKAGVLAVGVGSALVKGTPDEVREKAKAFVEKIRGCTE
Q: Which “VLP assembly peak (% by HPLC)” value does the source give for B1 here?
A: formation of the VLP assembly (50%)
